The source of these data is the RNAGym collection of RNA variant scans (doi:10.1073/pnas.2313332121).

B1: TPR t1 (parent)
chain: GACCAAUCUGCCCUCAGAGCUCGAGAACAUCUUCGGAUGCAGAGGAGGCAGGCUUCGGUGGCGCGAUAGCGCCAACGUCCUCAACCUCCAAUGCAUCCCACCACAUGAUGAUGCCUGAAGAGCCUUGGUUUUUUG

This data set covers variants of B1. Nature of the data set: polymerase ribozyme fitness, log enrichment relative to wild type (log ratio); higher = more active; in vitro selection for triplet polymerase activity. The method in brief: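 Fitness compares each genotype's enrichment to that of the wild type on a logarithmic scale, averaging replicates with inverse-variance weights. The logarithm is base 2. Enrichment came from Illumina sequencing of input and output libraries after one triplicate round of in vitro selection, which included frozen incubation at −7 °C, of PCR-built, transcribed mutant libraries of each subunit of a heterodimeric triplet polymerase ribozyme. Only genotypes with ≥10 input reads and ≥1 read per output were kept.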
Turning to G52C G71U C73U C104U G120C, the “polymerase ribozyme fitness (log ratio)” value is -2.42. Under C13G C73U A91C stands -2.89; under U59A C124U, 1.47. In the case of A90C G117U it was -3.98; in that of A41U G57A, -1.97; in that of C12U C123A, 2.11. Under A29U G47A C86G stands -2. As to A27G C53U C72A C102U, the “polymerase ribozyme fitness (log ratio)” value is -3.85.

As to C82G U109G, the “polymerase ribozyme fitness (log ratio)” value was -5.33. Regarding A41U U133G, the “polymerase ribozyme fitness (log ratio)” value was -1.49. Under G63A A83G U106A stands -3.25. Under C72U G113C C123G stands -1.69. For U87G A103C, the “polymerase ribozyme fitness (log ratio)” value is -5.65. In the case of C3A C12U U54A G69U G77C it was -3.81; in that of G36C G51A C101U, -3.92; in that of C49U G63C C124U, 0.36. For the variant G60A U78G A84U G93A C102A, the “polymerase ribozyme fitness (log ratio)” value was -4.94.

Take G36U C82A G113U: the “polymerase ribozyme fitness (log ratio)” value was -3.08. Under C8G C101G G128U stands -3.26. In the case of G61A U87G it was 0.506; in that of A43U G69C, -2.32.

As for A6G C22U A43C G45U C94A C124A, the “polymerase ribozyme fitness (log ratio)” value was -5.87. With G113A U131A, the “polymerase ribozyme fitness (log ratio)” value is -0.84. Under C86U G120A stands 0.277. Turning to A66C G117A A119U, the “polymerase ribozyme fitness (log ratio)” value is -2.36. Under U9G U14A G77U U92G C124U stands -3.63; under C13A A24G A29G C94A, -4.2. In the case of C4U U112C it was 1.38; in that of U9A C13A G51U C94G, -4.04.

On to G36A G71U, for which the “polymerase ribozyme fitness (log ratio)” value is -0.815. Under U55G C85A stands -1.66; under C13G C15U G120A, -2.44. Under A90C G107C G110C stands -6.73. In the case of C15A A41C C72A it was -2.94; in that of U14G G44A C72U C104U, -2.42; in that of A103C U109G U130C, -5.77. Regarding C70U A111C U116G A121C, the “polymerase ribozyme fitness (log ratio)” value was -4.3.

Turning to A6C U9G G57U G113U G128U, the “polymerase ribozyme fitness (log ratio)” value is -3.88. In the case of A6G U14A C72U C88U G93A it was -1.77.

Consider C76A A119G, for which the “polymerase ribozyme fitness (log ratio)” value worked out at 0.169. In the case of C102U G113A it was -2.86. Under G63C A90G G93U A118G stands -1.31. Under G60A C101A U106A A119U C123U stands -4.23.

For C12U G57A, the “polymerase ribozyme fitness (log ratio)” value is -0.879. In the case of C15U G71U C101U it was -1.24; in that of C82G C97A C124A U125G, -5.83. In the case of C20U G60A G61A C99U it was -5.32; in that of A29U C53G U81A A121U U132A, -1.75; in that of G42C G71U G117A, -4.04. Under C104A U134G stands -1.17; under U9C A41C C53G, -0.677.

For G52C C89G G127C, the “polymerase ribozyme fitness (log ratio)” value was -2.37.

C4A U21G G44U C82A C124G: the “polymerase ribozyme fitness (log ratio)” value is -3.89.

For the variant U30C U78G, the “polymerase ribozyme fitness (log ratio)” value was -3.78.

In the case of C11G C15U G25C A111C A118G, the “polymerase ribozyme fitness (log ratio)” value is -6.56.

For C11A G17U, the “polymerase ribozyme fitness (log ratio)” value is -3.57. Under C13A G48A G61A U106A A118G stands -2.04; under U33A A66G C123A, -6.2.

On to A50G U106G U116G, for which the “polymerase ribozyme fitness (log ratio)” value was -3.36. Under U30C G42U C76G C85A G122A C123G stands -4.17; under C12G C98A, -4.17.

Regarding C8A C124G, the “polymerase ribozyme fitness (log ratio)” value came to 1.76. Under C20G C40A G58C A121U stands -4.66; under C4U C12A U59C A66C, -2.92. On to C31U C34G C53G C70G A90C G120A G122A C124A, for which the “polymerase ribozyme fitness (log ratio)” value was -7.98. Under C11G G120C stands 1.89. Turning to C8U G69U, the “polymerase ribozyme fitness (log ratio)” value is 0.891. On to C53A C70U G117A A121C, for which the “polymerase ribozyme fitness (log ratio)” value is -1.08.

Take C15A G36A A50C G65A G69U: the “polymerase ribozyme fitness (log ratio)” value was -7.38. In the case of A90U U96C C115U it was -1.64; in that of G45A A105G, -3.69; in that of C13G G61C, -2.94.

In the case of C12U A46G C56A A105U, the “polymerase ribozyme fitness (log ratio)” value is -1.73. In the case of U54C G71A C85G C101U U112G G120C it was -4.36; in that of U21A U59G U81G C82G C115U, -4.27; in that of A26U G39A C49G G61A C88U C124G, -3.77. Under C22G A29C C40A G120C stands -5.67; under C49A A84C C99U, -3.55; under G63U G122A, -2.28. In the case of C97U U133A it was -0.824; in that of C8A G36U C49G G71U, -1.2. Consider G69U A83U G127A, for which the “polymerase ribozyme fitness (log ratio)” value is -1.18. Under C15A C104U G110A stands -2.85; under A18G G19U C73A C79U, -1.75; under G60U U116C U132A, -0.473. As to G52U G61U U81C C115U, the “polymerase ribozyme fitness (log ratio)” value was -4.28.

Consider C3G C13A, for which the “polymerase ribozyme fitness (log ratio)” value was -3.57.

On to C73G U92A, for which the “polymerase ribozyme fitness (log ratio)” value is -5.66. In the case of G48U C70U C114A it was -2.21; in that of G65C U87A, -5.6. Under C4A G60A U78C stands -2.08; under G35U A74G C89U C115A, -6.17.

As to G44U G71U, the “polymerase ribozyme fitness (log ratio)” value is -1.06. In the case of G60C G93A it was -0.963; in that of G58A C124A, 2.39; in that of A2U A43G G45A C72G A84G A111U, -6.25. Under U32C G47U G48U C76U U112G stands -4.6; under C12A A24C C97U, -7.95; under G44C G47U, -1.8.

For A6U C28G G58A A100U, the “polymerase ribozyme fitness (log ratio)” value was -3.49.

Take A46C: the “polymerase ribozyme fitness (log ratio)” value was -0.983. G52U C56A A66U C102A: the “polymerase ribozyme fitness (log ratio)” value was -6.29.

C11U U106C: the “polymerase ribozyme fitness (log ratio)” value was -0.678. U92A U129A: the “polymerase ribozyme fitness (log ratio)” value was -4.29. Under C13G C49U G51A U125A stands -4.36; under G77U C79U U106A, -0.0765; under G61A C79A C114A, -3.21.

On to A46U U112A, for which the “polymerase ribozyme fitness (log ratio)” value was found to be 0.36. For G42A G69A G93C, the “polymerase ribozyme fitness (log ratio)” value was -6.98.

For G10C C15A A50U C115U, the “polymerase ribozyme fitness (log ratio)” value was -5.25. Under A84U A90G C98G U109A A121U stands -3.5.

For the variant G25C C70G G107A A111U U129G, the “polymerase ribozyme fitness (log ratio)” value is -7.14. Under G71U U133A stands -0.757; under C40G C82A A83C U87A A121U, -0.502. Under A29C U112A stands -2.33; under C8G A37U G44A G60C C115A, -0.0408. Under A41C C56U C94A stands -3. As for C88A A95U C102A G120A, the “polymerase ribozyme fitness (log ratio)” value is -3.23.

In the case of G44A C49U U78G C101A, the “polymerase ribozyme fitness (log ratio)” value is -3.78. Under C53U U92A G113A G117A C124A stands -5.57; under G39U C64U A91C C123A, -1.57. In the case of A6C G61C U92C it was -4.76; in that of A66C C82G, -2.06. As for A2G U78A, the “polymerase ribozyme fitness (log ratio)” value came to 0.0128. In the case of G52A U116C it was -0.22; in that of C8G C73G, 0.0346; in that of A46C C64A G69C C94A, -2.85. Under A83U G120U U129C stands -1.36; under G52U U59G C88A C101U, -1.76.

In the case of G45U U96C, the “polymerase ribozyme fitness (log ratio)” value was -1.43. In the case of A46U C62G C88A it was -4.01. In the case of G45U A50U G52U G58A it was -4.49; in that of C12A C88U U109A C114A U133C, -6.51. Consider C8U A26U C62U G93A, for which the “polymerase ribozyme fitness (log ratio)” value is -2.86. Under U38A G45C C89U stands -2.34; under A95U U106G G120U, -2.83.

On to G47A U54A A90G U131G, for which the “polymerase ribozyme fitness (log ratio)” value is -0.834.

Take A26U C70A: the “polymerase ribozyme fitness (log ratio)” value is -5.16. Under A6U G19U A121U stands -1.67.

On to C20U U106C, for which the “polymerase ribozyme fitness (log ratio)” value is -2.1. In the case of G39C C72U G93U A121U it was 0.127.

Turning to A43C A118U, the “polymerase ribozyme fitness (log ratio)” value was -1.82. Under A6C G10A U33A C49A A121U stands -2.86; under G52U U132A, -0.57; under G71U C88U A100C U106G, -5.6. Under A6C C56U A83C U112G stands -1.14; under A5C C56A, -0.668. A83G G120U C124A G135A: the “polymerase ribozyme fitness (log ratio)” value was determined as 0.857. In the case of G48A U54G G110C it was -4.76; in that of C31G G47A C80G C115U U126A, -8. In the case of C40U A74U A111C it was -1.01; in that of G58C U59G A95U G122A, -0.6; in that of A29U A50U U78A G93C, -4.11. Under A16C A37C U112C stands -2.37. As to C13A G69U C73G, the “polymerase ribozyme fitness (log ratio)” value was -5.01. Under C8A G117C stands -2.07. Under C8G A24G C124U U126G stands -2.55; under G57U U129C, -1.6; under A6U C76U, -0.345.

For the variant C4A G23A A50G G61C U87C A95G G117U C123G, the “polymerase ribozyme fitness (log ratio)” value is -6.54. Under U21C G110U G113U stands -4.79. In the case of G51U G52C C80U it was -3.13.

For the variant U7A G61C, the “polymerase ribozyme fitness (log ratio)” value is -1.93. In the case of C49U C85G U96G it was -2.99; in that of C28U C62U, -2.6; in that of G48U G60C C70U U78G, -5.9.

Turning to A29U C62G, the “polymerase ribozyme fitness (log ratio)” value was -2.45.
